The target in the assay is 3HA-3FLAG-CIAO3-C190S/C395S (human) (UniProt Q9H6Q4). The experiment in a line: affinity purification with mass spectrometry; anti-HA beads on lysates of Flp-In 293 cells expressing the 3HA-3FLAG-tagged bait (NUBP2, wildtype or mutant CIAO3); targeted proteomics assay (parallel reaction monitoring) of CIA components and substrates; CIAO3 purifications normalised to CIAO3; wildtype CIAO3 cells also treated with FAC or DFO for 8 h.
Sequence of 3HA-3FLAG-CIAO3-C190S/C395S (human) (Q9H6Q4 whole entry C190S/C395S): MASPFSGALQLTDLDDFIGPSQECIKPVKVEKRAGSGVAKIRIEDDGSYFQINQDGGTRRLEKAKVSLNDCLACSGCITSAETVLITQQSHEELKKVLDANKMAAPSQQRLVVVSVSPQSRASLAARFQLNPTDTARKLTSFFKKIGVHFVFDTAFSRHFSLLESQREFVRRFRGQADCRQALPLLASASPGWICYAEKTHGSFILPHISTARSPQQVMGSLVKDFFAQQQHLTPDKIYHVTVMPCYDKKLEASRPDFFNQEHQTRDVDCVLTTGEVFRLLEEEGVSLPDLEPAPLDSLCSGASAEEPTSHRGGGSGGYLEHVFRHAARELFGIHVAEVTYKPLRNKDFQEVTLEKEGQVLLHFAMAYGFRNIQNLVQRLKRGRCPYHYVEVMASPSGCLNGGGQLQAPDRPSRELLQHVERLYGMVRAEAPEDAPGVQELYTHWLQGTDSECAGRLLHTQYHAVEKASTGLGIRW

Substance The CIA targeting complex came in with a fold decrease against wildtype CIAO3 of 3 to 4 fold.

(Values after PMC9243173.)
